Publication PMC5640506 (2017)

Legend:
K33-linked diUb = K33-linked diUb (UniProt P0CG47 1-76, K33-linked: one Ub is ubiquitinated on the side chain of K33); assay: MST
K48 diUb = K48 diUb (Homo sapiens); assay: MST
K63 diUb = K63 diUb (Homo sapiens); assay: MST
K11-linked diUb [1] = biological target: T1, K11-linked diUb (UniProt P0CG47 1-76, K11-linked: one Ub is ubiquitinated on the side chain of K11); assay: MST
K29 diUb = K29 diUb (Homo sapiens); assay: MST
K11-linked diUb [2] = biological target: T1, K11-linked diUb; assay: ITC
K6-linked diUb = K6-linked diUb (UniProt P0CG47 1-76, K6-linked: one Ub is ubiquitinated on the side chain of K6); assay: MST

| Kd (K33-linked diUb) | Kd (K48 diUb) | Kd (K63 diUb) | Kd (K11-linked diUb [1]) | Kd (K29 diUb) | Kd (K11-linked diUb [2]) | Kd (K6-linked diUb) | Binder |
| --- | --- | --- | --- | --- | --- | --- | --- |
| 120 µM | 82 µM | 130 µM | 49 µM | 55 µM | – | – | dimerized K6 affimer, fluorescently labelled (designed binder, Alexa488-maleimide or NT-647-maleimide on a single cysteine) ENSLEIEELARFAVDEHNKKENALLEFVRVVKAKEQSWKDDELFDTMYYLTLEAKDGGKKKLYEAKVWVKASGIVMYQMNFKELQEFKPVENSLEIEELARFAVDEHNKKENALLEFVRVVKAKEQSWKDDELFDTMYYLTLEAKDGGKKKLYEAKVWVKASGIVMYQMNFKELQEFKPV |
| – | – | – | – | – | 7 nM | – | K33 affimer (designed binder) MSAATGVRAVPGNENSLEIEELARFAVDEHNKKENALLEFVRVVKAKEQIWEMDASKETMYYLTLEAKDGGKKKLYEAKVWVKMTHWIGAMNNFKELQEFKPVGDAAAAHHHHHHG |
| – | 120 µM | 83 µM | – | 61 µM | – | 210 µM | dimerized K33/K11 affimer, fluorescently labelled (designed binder, Alexa488-maleimide or NT-647-maleimide on a single cysteine) ENSLEIEELARFAVDEHNKKENALLEFVRVVKAKEQIWEMDASKETMYYLTLEAKDGGKKKLYEAKVWVKMTHWIGAMNNFKELQEFKPVENSLEIEELARFAVDEHNKKENALLEFVRVVKAKEQIWEMDASKETMYYLTLEAKDGGKKKLYEAKVWVKMTHWIGAMNNFKELQEFKPV |
